Results: US9493537 (STC UNM, dated 2016)
Values belong to the binder of their own block, whether it stands above or below them. Positions of bridges follow the written chain, without caps; N, C: chain ends. Non-standard residues stand in square brackets, D forms with d. *: point of attachment. DOTA = O=C(O)CN1CCN(CC(=O)O)CCN(CC(=O)*)CCN(CC(=O)O)CC1; Nle = CCCC[C@H](N)C(=O)O

Experiments:
[1] = target: T1, melanocortin-1 (MC1) receptor on B16/F1 murine melanoma cells (mouse (B16/F1 murine melanoma cells), UniProt Q01727 1-315); assay: competitive binding on B16/F1 melanoma cells against 125I-Tyr2-NDP-MSH
T1 construct: whole, on cells; Endogenous receptor of the B16/F1 cells, in culture and as flank tumours in C57 mice; also called MCI receptor; MSH receptor
T1 sequence (Q01727 whole entry): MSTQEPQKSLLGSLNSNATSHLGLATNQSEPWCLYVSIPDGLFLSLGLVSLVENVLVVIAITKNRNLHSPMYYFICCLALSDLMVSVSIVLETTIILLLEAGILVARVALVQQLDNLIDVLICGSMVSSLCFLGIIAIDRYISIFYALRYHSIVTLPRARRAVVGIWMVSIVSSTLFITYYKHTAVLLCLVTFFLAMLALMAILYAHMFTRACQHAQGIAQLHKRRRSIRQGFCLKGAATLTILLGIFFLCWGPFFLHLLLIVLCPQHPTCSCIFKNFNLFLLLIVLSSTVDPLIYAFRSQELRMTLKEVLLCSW
Description: (§1) The medium was aspirated after the incubation. The cells were rinsed twice with 0.5 mL of ice-cold pH 7.4, 0.2% BSA/0.01 M phosphate buffered saline (PBS) and lysed in 0.5 mL of 1 N NaOH for 5 minutes. The activities associated with cells were measured in a Wallac 1480 automated gamma counter (PerkinElmer, Waltham, Mass.). The $IC50$ value of each peptide was calculated using Prism software (GraphPad Software, La Jolla, Calif.).

[2] = target: T1, melanocortin-1 (MC1) receptor on B16/F1 …; assay: competitive binding on B16/F1 melanoma cells against 125I-Tyr2-NDP-MSH; row head 'MC1R binding affinity (nM)'
Description: as §1

- fold lower receptor binding affinity than DOTA-GGNle-CycMSHhex and DOTA-GENle-CycMSHhex [1]: ≥ 78 fold
- IC50 [2]: 873 nM
B1: DOTA-NleGE-CycMSHhex (peptide)
peptide: {DOTA}-[Nle]GEDH[dF]RWK-NH2
modifications: lactam 4-9
SMILES: CCCC[C@H](NC(=O)CN1CCN(CC(=O)O)CCN(CC(=O)O)CCN(CC(=O)O)CC1)C(=O)NCC(=O)N[C@@H](CCC(=O)O)C(=O)N[C@H]1CC(=O)NCCCC[C@@H](C(N)=O)NC(=O)[C@H](Cc2c[nH]c3ccccc23)NC(=O)[C@H](CCCNC(=N)N)NC(=O)[C@@H](Cc2ccccc2)NC(=O)[C@H](Cc2c[nH]cn2)NC1=O
notes: Synthetic; also called DOTA-NleGlyGlu-CycMSHhex

- IC50 [2]: 2.1 nM
B2: DOTA-GGNle-CycMSHhex (peptide)
peptide: {DOTA}-GG[Nle]DH[dF]RWK-NH2
modifications: lactam 4-9
SMILES: CCCC[C@H](NC(=O)CNC(=O)CNC(=O)CN1CCN(CC(=O)O)CCN(CC(=O)O)CCN(CC(=O)O)CC1)C(=O)N[C@H]1CC(=O)NCCCC[C@@H](C(N)=O)NC(=O)[C@H](Cc2c[nH]c3ccccc23)NC(=O)[C@H](CCCNC(=N)N)NC(=O)[C@@H](Cc2ccccc2)NC(=O)[C@H](Cc2c[nH]cn2)NC1=O
notes: Synthetic; also called DOTA-GlyGlyNle-CycMSHhex

- IC50 [2]: 11.5 nM
B3: DOTA-GENle-CycMSHhex (peptide)
peptide: {DOTA}-GE[Nle]DH[dF]RWK-NH2
modifications: lactam 4-9
SMILES: CCCC[C@H](NC(=O)[C@H](CCC(=O)O)NC(=O)CNC(=O)CN1CCN(CC(=O)O)CCN(CC(=O)O)CCN(CC(=O)O)CC1)C(=O)N[C@H]1CC(=O)NCCCC[C@@H](C(N)=O)NC(=O)[C@H](Cc2c[nH]c3ccccc23)NC(=O)[C@H](CCCNC(=N)N)NC(=O)[C@@H](Cc2ccccc2)NC(=O)[C@H](Cc2c[nH]cn2)NC1=O
notes: Synthetic; also called DOTA-GlyGluNle-CycMSHhex
